Laboratory results from patent US20100272753A1.

Target: native circumsporozoite protein (CSP) on intact P. falciparum sporozoites (Plasmodium falciparum) (UniProt Q7K740)
Experiment: indirect immunofluorescence on intact P. falciparum sporozoites

Chain of UniProt Q7K740 (Q7K740 19-374): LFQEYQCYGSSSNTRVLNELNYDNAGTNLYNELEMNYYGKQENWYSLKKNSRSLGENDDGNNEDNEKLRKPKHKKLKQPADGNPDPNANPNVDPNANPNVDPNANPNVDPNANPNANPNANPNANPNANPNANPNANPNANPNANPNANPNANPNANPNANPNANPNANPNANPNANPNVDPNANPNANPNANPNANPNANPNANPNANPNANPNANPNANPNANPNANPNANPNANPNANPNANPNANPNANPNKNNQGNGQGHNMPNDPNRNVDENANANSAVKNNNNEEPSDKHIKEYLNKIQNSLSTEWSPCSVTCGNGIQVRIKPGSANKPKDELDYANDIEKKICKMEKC

“anti-P. falciparum NANP monoclonal antibody 2A10” showed a dilution positive in immunofluorescence (reciprocal dilution) of 16000.
